These results are taken from patent US20250179126A1, “A NOVEL PEPTIDE FROM A PHOTOSYNTHETIC BACERIUM DIRECTLY TARGETS MITOCHONDRIA TO TRIGGER APOPTOSIS IN ADVANCED PROSTATE CANCER CELLS” (priority 2022, published 2025).

Data set [1] deals with spontaneously developed mammary tumors. Put plainly: NIR-imaging of transgenic mice. The following applies: 5 mg/kg once, imaged after 24 h. Format: in vivo. As for the experimental part:
FIG. 29A-29C: Effect of azurin from P. aeruginosa in a transgenic animal model. 29A. Near-infrared red (NIR) dye-conjugated azurin or PBS was injected i.v. into transgenic mice that spontaneously develop mammary tumors. Twenty-four hours after azurin injection, mice were imaged with a photodynamic eye (PDE) system (left: photographic image, right: NIR fluorescence image at 800 nm). 29B. At the end of the study, the tumors were resected.
NIR-imaging of transgenic mice: Near infrared red fluorescent dye (IR800, Licor, NE) was conjugated to azurin according to the manufacturer instructions. Transgenic mice with spontaneously developed mammary tumours received NIR dye conjugated azurin at 5 mg/kg once i.p. After 24 h, specific fluorescence signal at 800 nm was recorded by the PDE-neo® NIR camera system (Hamamatsu photonics, Mitaka-USA).

A further data set relates to P. aeruginosa. Put plainly: Azurin secretion by P. aeruginosa treated with purified aldolase A (western blot). Format: cell-based, Pseudomonas aeruginosa. Conditions: 30 min. As for the experimental part: FIG. 18A-18G: Induction of aldolase A secretion by host cells in the presence of P. aeruginosa. 18A. Human host cells (cancer and normal) and P. aeruginosa were co-incubated for 30 min at a concentration of 500,000 human cells/ml with P. aeruginosa at OD=0.3. Aldolase secretion varied between the co-cultures with cancer and normal cells. […] 18B Correlation between the aldolase A and azurin levels in co-cultures of P. aeruginosa with cancer or normal cells. 18C Cancer cells (Mel-2 and MDA-MB-231) and P. aeruginosa (WT and azunull mutant) were co-incubated for 30 min at a concentration of 500,000 human cells/ml with P. aeruginosa at OD=0.3. Secretion of aldolase into the culture supernatant was assessed by western blot analysis. 18D P. aeruginosa (OD=0.3) was treated with purified aldolase A protein at concentrations of 1 nM, 10 nM, 100 nM, and 1 μM for 30 min. […]
Western blotting: After running the NuPAGE, proteins were transferred to PVDF membranes (BioRad Laboratories Inc, Hercules, CA) which were blocked in SuperBlock (T20 TBS buffer, Thermo Fisher) for one hour. […] The signal was detected using enhanced chemiluminescence (ECL, Thermo Fisher Scientific). Quantitative analysis of the bands was performed with a computer-assisted imaging densitometer (UN-SCAN-IT gel version 5.1).

The subject of the next data set is Mel-2 cells. Put plainly: Host cell adhesion assay, P. aeruginosa on Mel-2 cells. Format: cell-based, human. As for the experimental part:
(§1) FIG. 24A-24E: 24A—Adherence assays were performed essentially as previously described38. Monolayer MDA-MB-231 (red) and Mel-2 (blue) cells were compared to siRNA-induced silencing of aldolase gene in the cancer cell lines (+) when they were co-incubated with P. aeruginosa for 2 h. To assess total cell association, monolayers were washed to remove unbound P. aeruginosa and were then disrupted and homogenized in 0.10% saponin/PBS. P. aeruginosa cells were counted by serial dilution of the homogenized suspensions and subsequent determination of colony-forming units (CFU) by plating on LB agar. Control (−) expressed as 100%. Mean±SE, *P<0.05. 24B—Monolayer MDA-MB-231 (red) and Mel-2 (blue) cells were co-incubated with P. aeruginosa in the presence or absence of exogenous aldolase A for 2 h. Similar to above, total P. aeruginosa association on cancer cells were counted by plating on LB agar. Control (0 μM aldolase A) expressed as 100%. […] Total P. aeruginosa association on cancer cells were counted by plating on LB agar. *P<0.05, NS: not significant. […] The mean+SE values were calculated.
(§2) Host cell adhesion assay: The assays were performed essentially as described before38. […] Control values of CFU/ml expressed as 100%. siRNA-induced silencing of aldolase and MUC1 genes in MDA-MB-231 and Mel2 cells as conducted as described previously80,81. […]

Another data set has as its system MDA-MB-231 cells. The data set can be described thus: Host cell adhesion assay, P. aeruginosa on MDA-MB-231 cells. The format is cell-based, human. As for the experimental part:
as §1, §2

On to “NIR dye-conjugated azurin: azurin conjugated to near infrared red fluorescent dye IR800”, for which, in data set [1], the “tumor localization (NIR fluorescence at 800 nm)” value is “preferentially localized to spontaneously developed mammary tumors”.

B1: aldolase A: purified human aldolase A (purity >95%), glycolytic enzyme (protein, UniProt P04075 2-364, looked up)
Fructose-bisphosphate …: PYQYPALTPEQKKELSDIAHRIVAPGKGILAADESTGSIAKRLQSIGTENTEENRRFYRQLLLTADDRVNPCIGGVILFHETLYQKADDGRPFPQVIKSKGGVVGIKVDKGVVPLAGTNGETTTQGLDGLSERCAQYKKDGADFAKWRCVLKIGEHTPSALAIMENANVLARYASICQQNGIVPIVEPEILPDGDHDLKRCQYVTEKVLAAVYKALSDHHIYLEGTLLKPNMVTPGHACTQKFSHEEIAMATVTALRRTVPPAVTGITFLSGGQSEEEASINLNAINKCPLLKPWALTFSYGRALQASALKAWGGKKENLKAAQEEYVKRALANSLACQGKYTPSGQAGAAASESLFVSNHAY
With B1, the “azurin secretion by P. aeruginosa (western blot)” value in the data set on P. aeruginosa (P. aeruginosa OD=0.3, 1 μM aldolase A) was “stimulated azurin secretion”; in the data set with P. aeruginosa (P. aeruginosa OD=0.3, purified aldolase A 1 nM-1 μM) it was “induced azurin secretion”. For the same molecule, the “aldolase A concentration at which increase of adherence is saturable” value is above 1 µM with Mel-2 cells (Mel-2, 2 h) and above 1 µM in the data set on MDA-MB-231 cells (MDA-MB-231, 2 h). Also, the “adherence of P. aeruginosa to cancer cells” value with Mel-2 cells (Mel-2, exogenous aldolase A, 2 h) is on record as “significantly increased adherence to cancer cells”; with MDA-MB-231 cells (MDA-MB-231, exogenous aldolase A, 2 h) it was “significantly increased adherence to cancer cells”.
